Test results as given in publication doi:10.1101/2024.09.10.612331.
Each block holds one molecule with its values, some of them ahead of it.

Tests used:
[1] = target: ALX4 homeodomain R216A (R3A) (mouse cDNA (identical to human in this region, as the paper says)); experiment: native gel or EMSA
[2] = target: ALX4 homeodomain R215A (R2A) (mouse cDNA (identical to human in this region, as the paper says)); experiment: native gel or EMSA
[3] = target: ALX4 homeodomain (aa 209-274) (mouse cDNA (identical to human in this region, as the paper says)); experiment: crystal structure
[4] = target: ALX4 homeodomain (aa 209-274) (mouse cDNA (identical to human in this region, as the paper says)); experiment: native gel or EMSA
[5] = target: ALX4 homeodomain V241R (V28R) (mouse cDNA (identical to human in this region, as the paper says)); experiment: native gel or EMSA
ALX4 V241R = ALX4 V241R (mouse cDNA (human protein sequence …, UniProt O35137 158-291, V229R)); experiment: ITC
ALX4 R216A = ALX4 R216A (mouse cDNA (human protein sequence …, UniProt O35137 158-291, R204A)); experiment: ITC
ALX4 R216G = ALX4 R216G (mouse cDNA (human protein sequence …, UniProt O35137 158-291, R204G)); experiment: ITC
ALX4 R215A;R216A = ALX4 R215A;R216A (mouse cDNA (human protein sequence …, UniProt O35137 158-291, R203A;R204A)); experiment: ITC
[6] = target: ALX4 WT (ITC, mutant-series EMSA) (mouse cDNA (human protein sequence …, UniProt O35137 158-291)); experiment: ITC
ALX4 R215A = ALX4 R215A (mouse cDNA (human protein sequence …, UniProt O35137 158-291, R203A)); experiment: ITC
ALX4 R272P = ALX4 R272P (mouse cDNA (human protein sequence …, UniProt O35137 158-291, R260P)); experiment: ITC
ALX4 R218Q = ALX4 R218Q (mouse cDNA (human protein sequence …, UniProt O35137 158-291, R206Q)); experiment: ITC
ALX4 Q225E = ALX4 Q225E (mouse cDNA (human protein sequence …, UniProt O35137 158-291, Q213E)); experiment: ITC
ALX4 K211E = ALX4 K211E (mouse cDNA (human protein sequence …, UniProt O35137 158-291, K199E)); experiment: ITC
Chain of ALX4 K211E (mouse cDNA (O35137 158-291 K199E): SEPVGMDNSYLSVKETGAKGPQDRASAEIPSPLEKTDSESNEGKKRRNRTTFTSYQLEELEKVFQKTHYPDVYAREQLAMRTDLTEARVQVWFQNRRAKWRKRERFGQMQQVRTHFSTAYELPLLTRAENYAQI

Chain of ALX4 V241R (mouse cDNA (O35137 158-291 V229R): as the sequence (O35137 158-291 K199E) above, with E42K, V72R counted along it
Chain of ALX4 R215A (mouse cDNA (O35137 158-291 R203A): as the sequence (O35137 158-291 K199E) above, with E42K, R46A counted along it
Chain of ALX4 WT (ITC, mutant-series EMSA) (mouse cDNA (O35137 158-291, stated change not applied): as the sequence (O35137 158-291 K199E) above, with E42K counted along it
Chain of ALX4 R215A;R216A (mouse cDNA (O35137 158-291 R203A/R204A): as the sequence (O35137 158-291 K199E) above, with E42K, R46A, R47A counted along it
Chain of ALX4 R216G (mouse cDNA (O35137 158-291 R204G): as the sequence (O35137 158-291 K199E) above, with E42K, R47G counted along it
Chain of ALX4 R216A (mouse cDNA (O35137 158-291 R204A): as the sequence (O35137 158-291 K199E) above, with E42K, R47A counted along it
Chain of ALX4 R272P (mouse cDNA (O35137 158-291 R260P): as the sequence (O35137 158-291 K199E) above, with E42K, R103P counted along it
Chain of ALX4 Q225E (mouse cDNA (O35137 158-291 Q213E): as the sequence (O35137 158-291 K199E) above, with E42K, Q56E counted along it
Chain of ALX4 R218Q (mouse cDNA (O35137 158-291 R206Q): as the sequence (O35137 158-291 K199E) above, with E42K, R49Q counted along it

Molecule: ALX4 homeodomain (aa 209-274) (domain or fragment)
stoichiometry N [3]: 2 | Tau (cooperativity factor on the P3 DNA site) [4]: 110 | Tau (cooperativity factor on the P4 DNA site) [4]: 1.5

Molecule: ALX4 homeodomain V241R (V28R) (domain or fragment)
Tau (cooperativity factor on the P3 DNA site) [5]: 0.327

B1: 14-mer monomer site ITC duplex (dsDNA)
DNA 1: CGCTAATTAGCTCG
DNA 2: CGAGCTAATTAGCG
Kd (ALX4 V241R): 7.45 ± 5.22 nM | Kd (ALX4 R216A): 15.2 ± 4.63 nM | Kd (ALX4 R216G): 41.8 ± 8.81 nM | Kd (ALX4 R215A;R216A): 214 ± 39.8 nM | Kd [6]: 15.5 ± 0.98 nM | Kd (ALX4 R215A): 30.4 ± 18.5 nM | Kd (ALX4 R272P): 43.6 ± 12.1 nM | binding result (ALX4 R218Q): no binding | Kd (ALX4 Q225E): 52.5 ± 12.3 nM | Kd (ALX4 K211E): 21.5 ± 7.68 nM

Second part, the molecule after the results:

fold reduction of cooperativity (Tau on the P3 site) against wild type [1]: 10 fold
Molecule: ALX4 homeodomain R216A (R3A) (domain or fragment)

fold reduction of cooperativity (Tau on the P3 site) against wild type [2]: 5 fold
Molecule: ALX4 homeodomain R215A (R2A) (domain or fragment)
